Assay results as given in patent US20240209086A1 (PETMEDIX, published 2024).
Residue numbers refer to the chain shown, from its start. Values belong to the binder of their own block, whether it stands above or below them.

What was measured:
[1] = biological target: T1, canine CD20 on cells (HEK293, MDCK II, CLBL-1 or native B cells) (canine, UniProt Q3C2E2 1-297); assay: cell-based or functional assay
T1 chain: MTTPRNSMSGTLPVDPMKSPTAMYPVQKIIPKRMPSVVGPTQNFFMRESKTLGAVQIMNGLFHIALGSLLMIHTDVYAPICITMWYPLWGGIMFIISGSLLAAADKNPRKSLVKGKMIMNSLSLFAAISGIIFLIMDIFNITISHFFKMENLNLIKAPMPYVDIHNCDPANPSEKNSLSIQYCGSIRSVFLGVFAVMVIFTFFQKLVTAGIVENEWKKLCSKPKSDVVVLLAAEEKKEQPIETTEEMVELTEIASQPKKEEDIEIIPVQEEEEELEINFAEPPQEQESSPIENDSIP

[2] = biological target: T1, canine CD20 on cells (HEK293, MDCK II, …); assay: cell-based or functional assay
[3] = biological target: T1, canine CD20 on cells (HEK293, MDCK II, …); assay: cell-based or functional assay
[4] = biological target: canine CD3 on canine T cells (canine PBMC) (canine, UniProt P27597 22-202); assay: cell-based or functional assay
canine CD3 on canine T cells (canine PBMC), sequence (P27597 22-202 limits assumed, chain 1 of 3): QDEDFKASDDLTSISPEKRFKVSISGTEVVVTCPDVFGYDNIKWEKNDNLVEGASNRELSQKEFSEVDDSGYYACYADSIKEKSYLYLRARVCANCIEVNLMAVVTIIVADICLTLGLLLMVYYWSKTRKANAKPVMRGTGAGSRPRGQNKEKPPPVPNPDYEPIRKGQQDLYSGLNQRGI
canine CD3 on canine T cells (canine PBMC), sequence (chain, as listed by the source limits assumed, chain 2 of 3): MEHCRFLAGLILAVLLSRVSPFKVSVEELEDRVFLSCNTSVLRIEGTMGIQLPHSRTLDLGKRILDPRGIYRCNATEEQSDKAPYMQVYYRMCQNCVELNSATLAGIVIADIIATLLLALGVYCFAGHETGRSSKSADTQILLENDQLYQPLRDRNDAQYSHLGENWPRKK
canine CD3 on canine T cells (canine PBMC), sequence (chain, as listed by the source limits assumed, chain 3 of 3): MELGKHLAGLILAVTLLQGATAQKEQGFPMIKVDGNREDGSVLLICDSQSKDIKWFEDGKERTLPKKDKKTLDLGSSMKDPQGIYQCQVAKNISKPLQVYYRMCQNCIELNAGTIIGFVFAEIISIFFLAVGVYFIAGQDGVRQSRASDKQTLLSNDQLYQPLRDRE

[5] = biological target: T2, canine CD3εδ-Fc (heterodimer of canine CD3ε-hIgG4PE-knob and canine CD3δ-hIgG4PE-hole) (canine); assay: SPR (Biacore 8K), CD3εδ-Fc amine-coupled to CM5 chip, multi-cycle kinetics, antibody 600-7.4 nM
T2 construct: also called CD3εδ-Fc fusion protein; copies: 1 + 1
T2 sequence (chain, as listed by the source mutant limits assumed): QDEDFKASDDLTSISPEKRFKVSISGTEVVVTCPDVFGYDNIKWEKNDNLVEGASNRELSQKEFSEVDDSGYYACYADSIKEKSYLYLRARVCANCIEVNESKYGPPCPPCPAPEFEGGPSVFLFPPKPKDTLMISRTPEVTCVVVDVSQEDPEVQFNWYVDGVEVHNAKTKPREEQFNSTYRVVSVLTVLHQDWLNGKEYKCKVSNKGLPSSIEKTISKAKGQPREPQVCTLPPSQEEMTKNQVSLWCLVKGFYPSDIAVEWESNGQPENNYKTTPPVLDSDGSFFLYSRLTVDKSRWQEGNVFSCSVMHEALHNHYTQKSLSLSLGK
Procedure: Binding affinity of shortlisted candidates, described in Example 3, were assessed using Biacore 8K (Cytiva). Briefly, a CM5 Sensor Chip (Cytiva) was docked onto a Biacore 8K, equilibrated for 30′ at RT and then Running Buffer (10 mM HEPES pH6 150 mM NaCl 3 mM EDTA and 0.005% Tween20) was applied to the SPR chip surface. Canine CD3εδ-Fc was diluted into 10 mM acetate buffer pH4.5 and immobilised using standard amine coupling reaction. Antibodies dilutions were prepared by diluting the shortlisted candidates from 600 nM to 7.4 nM (5 concentrations with 1:3 dilutions) in running buffer and kinetics was assessed using multi-cycle kinetics method (120 sec association-300 sec dissociation). Kinetics and/or Affinity quantification was performed using Biacore Insight following standard analyses methods.

B1: PMX172VH/PMX263VH/PMX172VL (bispecific antibody, V domains shown)
VH 1: EVQLVESGGDLVKPGGSLRLSCVASGFTFSSYHMSWVRQAPGKGLQWVAYSNSGGSRTSYADAVKGRFTISRDNAKNTLYLQMNSLRAEDTAVYYCASEGGGGRYGYKDYGMDYWGHGTSLFVSS
VH 2: EVQLVESGGDLVKPGGSLRLSCVASGFTFSRYYMNWVRQAPGKGLQWVAYINSGGSSTSYADAVKGRFTISRDNAKNTLYLQMNSLRADDTAVYYCTSFDYWGQGTLVTVSS
VL: SYVLTQLPSKNVTLKQPAHITCGGDNIGSKSVHWYQQKLGQAPVLIIYYDSSRPTGIPERFSGANSGNTATLTISGALAEDEADYYCQVWDSSAKAWVFGEGTQLTVL
EC50 (nM), bispecific killing (FIG. 13E) [1]: 15.7 nM

B2: PMX172VH/PMX229VH/PMX172VL (bispecific antibody, V domains shown)
VH 1: B1 VH 1
VH 2: EVQLVESGGDLVKPGGSLRLSCVASGITFSRYHMSWVRQAPGKGLQWVAFINTGRSSTNYADAVAGRFTISRDNAKNTLYLQMNGLTVEDTAVYYCSTLDYWGQGTLVTVSS
VL: B1 VL
EC50 (nM), bispecific killing (FIG. 15) [2]: 1.02 nM

B3: PMX172VH/PMX262VH/PMX172VL (bispecific antibody, V domains shown)
VH 1: B1 VH 1
VH 2: B1 VH 2 with F27I, S57P, S59T, D89E
VL: B1 VL
EC50 (nM), bispecific killing (FIG. 15) [2]: 0.129 nM
EC50 (nM), endogenous B cell depletion in PBMC (FIG. 16A) [3]: 0.247 nM

B7: PMX172VH/PMX235VH/PMX172VL (bispecific antibody, V domains shown)
VH 1: B1 VH 1
VH 2: B1 VH 2 with F27I, S53T, G55E, S59I, A61S, D89E, S98T, F99L, D100E
VL: B1 VL
EC50 (nM), bispecific killing (FIG. 15) [2]: 0.445 nM

B8: PMX172VH/PMX240VH/PMX172VL (bispecific antibody, V domains shown)
VH 1: B1 VH 1
VH 2: B1 VH 2 with F27L, Y33H, N35S, Y50F, G55R, S57D, S59T, D89E, S98T
VL: B1 VL
EC50 (nM), bispecific killing (FIG. 15) [2]: 0.341 nM

B9: PMX172VH/PMX273VH/PMX172VL (bispecific antibody, V domains shown)
VH 1: B1 VH 1
VH 2: EMQLVESGGDLVKPGGSLRLSCVASGFTFSRYHMSWVRQAPGKGLQWVAYIDSDGSPTNYADAVKGRFTISRDNAKNTLYLQMNSLRAEDTAVYYCTTYDQWGQGTLVTVSS
VL: B1 VL
EC50 (nM), bispecific killing (FIG. 13E) [1]: 9.63 nM

B10: PMX172VH/PMX234VH/PMX172VL (bispecific antibody, V domains shown)
VH 1: B1 VH 1
VH 2: B1 VH 2 with V2L, M34L, Y50F, N52T, S59N, D89E, Y101S
VL: B1 VL
EC50 (nM), bispecific killing (FIG. 15) [2]: 0.412 nM

B14: PMX185 in bispecific format (canine CD3 arm PMX185 x Rituximab arm, human IgG4PE knob-in-hole) (bispecific antibody)
heavy 1: EVQLVESGGDLVKPGGSLRLSCVASGFTFSSYHMSWVRQAPGKGLQWVASINSGGSRTSYVDAVKGRFTISRDNAKKTLYLQMNSLRAEDTAVYYCASGRTGPKLGLGDYGMDSWGHGTSLFVSSASTKGPSVFPLAPCSRSTSESTAALGCLVKDYFPEPVTVSWNSGALTSGVHTFPAVLQSSGLYSLSSVVTVPSSSLGTKTYTCNVDHKPSNTKVDKRVESKYGPPCPPCPAPEFEGGPSVFLFPPKPKDTLMISRTPEVTCVVVDVSQEDPEVQFNWYVDGVEVHNAKTKPREEQFNSTYRVVSVLTVLHQDWLNGKEYKCKVSNKGLPSSIEKTISKAKGQPREPQVYTLPPSQCEMTKNQVSLSCAVKGFYPSDIAVEWESNGQPENNYKTTPPVLDSDGSFFLVSRLTVDKSRWQEGNVFSCSVMHEALHNRFTQKSLSLSLGK
light 1: SYVLTQLPSKNVTLKQPAHITCGGDNIGSKSVHWYQQKLGQAPVMIIYYDSSRPTGIPERFSGANSGNTATLTISGALAEDEADYYCQVWDSSAKAWVFGEGTQLTVLRTVAAPSVFIFPPSDEQLKSGTASVVCLLNNFYPREAKVQWKVDNALQSGNSQESVTEQDSKDSTYSLSSTLTLSKADYEKHKVYACEVTHQGLSSPVTKSFNRGEC
heavy 2: not shown
light 2: QIVLSQSPAILSASPGEKVTMTCRASSSVSYIHWFQQKPGSSPKPWIYATSNLASGVPVRFSGSGSGTSYSLTISRVEAEDAATYYCQQWTSNPPTFGGGTKLEIKRTVAAPSVFIFPPSDEQLKSGTASVVCLLNNFYPREAKVQWKVDNALQSGNSQESVTEQDSKDSTYSLSSTLTLSKADYEKHKVYACEVTHQGLSSPVTKSFNRGEC
EC50 (M) of killing potency, bispecific killing of hCD20+GFP MDCK II cells by canine PBMC [4]: 4.79e-09 M
Kd [5]: 72.1 nM

Continued, in another order:

EC50 (nM), endogenous B cell depletion in PBMC (FIG. 16A) [3]: 0.764 nM
B4: PMX172VH/PMX268VH/PMX172VL (bispecific antibody, V domains shown)
VH 1: B1 VH 1
VH 2: EVQLVESGGDLMKPGGSLRLSCVASGITFSGYHMSWVRQAPGKGLQWVAFINSGRKNTAYADAVKGRFTISRDNAKNTLYLQMNSLRAEDTAIYYCTTLEFWGQGTLVTVSS
VL: B1 VL

EC50 (nM), endogenous B cell depletion in PBMC (FIG. 16A) [3]: 0.183 nM
B5: PMX172VH/PMX230VH/PMX172VL (bispecific antibody, V domains shown)
VH 1: B1 VH 1
VH 2: B1 VH 2 with Q3H, F27I, S30N, A40T, N52D, S57P, S59T, D89E
VL: B1 VL
EC50 (nM), bispecific killing (FIG. 15) [2]: 0.121 nM

EC50 (nM), endogenous B cell depletion in PBMC (FIG. 16A) [3]: 0.075 nM
B6: PMX172VH/PMX236VH/PMX172VL (bispecific antibody, V domains shown)
VH 1: B1 VH 1
VH 2: B1 VH 2 with F27L, N52D, S57P, S59N, D89E, T97S
VL: B1 VL
EC50 (nM), bispecific killing (FIG. 15) [2]: 0.153 nM

EC50 (nM), endogenous B cell depletion in PBMC (FIG. 16A) [3]: 0.307 nM
B11: PMX172VH/PMX233VH/PMX172VL (bispecific antibody, V domains shown)
VH 1: B1 VH 1
VH 2: B9 VH 2 with H33Y, S35N, D54G, T91A, V93I, Y99F, Q101F
VL: B1 VL
EC50 (nM), bispecific killing (FIG. 15) [2]: 0.188 nM

Kd [5]: 74.4 nM
B12: PMX192 in bispecific format (canine CD3 arm PMX192 x Rituximab arm, human IgG4PE knob-in-hole) (bispecific antibody)
heavy 1: EVQLVESGGDLVKPAGSLRLSCVASGFTFSDYSMSWVRQAPEKGLQLVAGINGDGSTTYYTDAVKGRFTISRDNAKNTVYLQMNSLRAEDTAMYYCAKGAGTGDFWGQGTLVTVSSASTKGPSVFPLAPCSRSTSESTAALGCLVKDYFPEPVTVSWNSGALTSGVHTFPAVLQSSGLYSLSSVVTVPSSSLGTKTYTCNVDHKPSNTKVDKRVESKYGPPCPPCPAPEFEGGPSVFLFPPKPKDTLMISRTPEVTCVVVDVSQEDPEVQFNWYVDGVEVHNAKTKPREEQFNSTYRVVSVLTVLHQDWLNGKEYKCKVSNKGLPSSIEKTISKAKGQPREPQVYTLPPSQCEMTKNQVSLSCAVKGFYPSDIAVEWESNGQPENNYKTTPPVLDSDGSFFLVSRLTVDKSRWQEGNVFSCSVMHEALHNRFTQKSLSLSLGK
light 1: SYELTQPPSVNVTLRETAHITCGGASIGRKYVQWIQQIPGQAPVVIIYKDSNRPTGIPERFSGANSGNTATLTISGALAEDEADYYCQVGDSGAWVFGEGTQLTVLRTVAAPSVFIFPPSDEQLKSGTASVVCLLNNFYPREAKVQWKVDNALQSGNSQESVTEQDSKDSTYSLSSTLTLSKADYEKHKVYACEVTHQGLSSPVTKSFNRGEC
heavy 2: not shown
light 2: B14 light 2
EC50 (M) of killing potency, bispecific killing of hCD20+GFP MDCK II cells by canine PBMC [4]: 3.21e-08 M

Kd [5]: 99.8 nM
B13: PMX184 in bispecific format (canine CD3 arm PMX184 x Rituximab arm, human IgG4PE knob-in-hole) (bispecific antibody)
heavy 1: ELTLQESGPGLVKPSQTLSLTCGVSGGSVTRSHYWNWVRQRPGRGLEWMGYWTGSTNYNPAFQGRISITADTAKNQFSLQLRSMTTEDTAVYFCARETTIPTFFFDYWGQGTLVTVSSASTKGPSVFPLAPCSRSTSESTAALGCLVKDYFPEPVTVSWNSGALTSGVHTFPAVLQSSGLYSLSSVVTVPSSSLGTKTYTCNVDHKPSNTKVDKRVESKYGPPCPPCPAPEFEGGPSVFLFPPKPKDTLMISRTPEVTCVVVDVSQEDPEVQFNWYVDGVEVHNAKTKPREEQFNSTYRVVSVLTVLHQDWLNGKEYKCKVSNKGLPSSIEKTISKAKGQPREPQVYTLPPSQCEMTKNQVSLSCAVKGFYPSDIAVEWESNGQPENNYKTTPPVLDSDGSFFLVSRLTVDKSRWQEGNVFSCSVMHEALHNRFTQKSLSLSLGK
light 1: B14 light 1 with M45L, S93G
heavy 2: not shown
light 2: B14 light 2
EC50 (M) of killing potency, bispecific killing of hCD20+GFP MDCK II cells by canine PBMC [4]: 2.55e-08 M

Kd [5]: 106 nM
B15: PMX187 in bispecific format (canine CD3 arm PMX187 x Rituximab arm, human IgG4PE knob-in-hole) (bispecific antibody)
heavy 1: B14 heavy 1 with K77N
light 1: B14 light 1 with M45L, E101A
heavy 2: not shown
light 2: B14 light 2
EC50 (M) of killing potency, bispecific killing of hCD20+GFP MDCK II cells by canine PBMC [4]: 1.14e-08 M

Kd [5]: 292 nM
B16: PMX188 in bispecific format (canine CD3 arm PMX188 x Rituximab arm, human IgG4PE knob-in-hole) (bispecific antibody)
heavy 1: B14 heavy 1
light 1: B14 light 1 with V44I, M45L
heavy 2: not shown
light 2: B14 light 2
EC50 (M) of killing potency, bispecific killing of hCD20+GFP MDCK II cells by canine PBMC [4]: 8.23e-09 M
